In patent US20260125649A1, “MEDIUM COMPOSITION AND METHOD FOR CULTURING MESENCHYMAL STEM CELLS” (ACADEMIA SINICA, priority 2018, published 2026) one finds STAT3 phosphorylation data, which are given here for one molecule.

This assay deals with STAT3 (Tyr705). Description: STAT3 phosphorylation by Western blotting. In kind it is cell-based, human. The conditions noted are these: MSCs treated with the substance. As for the experimental part: After treatment, the protein levels of total STAT3 and phospho-STAT3 (Tyr705) were examined by Western blotting. […] Cell cycle progression was investigated by flow cytometry with PI staining. Fraction of cells in each phase (G1, S, G2/M) of the cell cycle was evaluated. Cells expressing STAT3 shRNA were treated with EpEX for 18 h, after which cell cycle progression was investigated by flow cytometry with PI staining. Fraction of cells in each phase (G1, S, G2/M) of the cell cycle was evaluated. […] The protein levels of cell cycle regulators (cyclin D1, cyclin D2, cyclin E1, CDK4 and CDK9) and pluripotency factors (Oct4, Sox2, c-Myc, Lin28) were examined by Western blotting. MSCs expressing STAT3 shRNA or shLuc were stimulated with EpEX. After treatment, the protein levels of cell cycle regulators (cyclin D1, cyclin D2, cyclin E1, CDK4 and CDK9) and pluripotency factors (Oct4, Sox2, c-Myc, and Lin 28) were examined by Western blotting. […] After treatment, the gene expression of pluripotency factors (Oct4, Sox2, c-Myc, Lin28 and EpCAM) was examined by qPCR.
FIG. 8. EpEX and EGF induce the phosphorylation of EGFR and STAT3. […] The phosphorylation of EGFR (Tyr845) and STAT3 (Tyr705) were examined by Western blotting with specific antibodies.
Western blotting was performed as previously described (Takahashi et al., 2003). […]
(In general: A western blot detects proteins with antibodies after separation by electrophoresis.)

B1: EpEX: extracellular domain of human EpCAM, 265 amino acids in length (SEQ ID NO: 2) (protein, listed as Homo sapiens)
chain: MAPPQVLAFGLLLAAATATFAAAQEECVCENYKLAVNCFVNNNRQCQCTSVGAQNTVICSKLAAKCLVMKAEMNGSKLGRRAKPEGALQNNDGLYDPDCDESGLFKAKQCNGTSMCWCVNTAGVRRTDKDTEITCSERVRTYWIIIELKHKAREKPYDSKSLRTALQKEITTRYQLDPKFITSILYENNVITIDLVQNSSQKTQNDVDIADVAYYFEKDVKGESLFHSKKMDLTVNGEQLDLDPGQTLIYYVDEKAPEFSMQGLK
Regarding B1, the STAT3 phosphorylation result is “stimulates”.
